Experiments:
[1] = molecular target: T1, human GLP-1 receptor (Abcam) (human, UniProt P43220 24-145, limits assumed); test: SPR (Proteon XPR36), human GLP-1 receptor immobilised, analyte 0-10 uM, Langmuir fit
T1 construct: Bought recombinant protein
Procedure: (§1) Binding affinity of each TAs were evaluated by SPR (Proteon XPR36, BIO-RAD) and based on the protocol modified from general procedure of SPR analysis in published paper. Specifically, the proteon GLC chip (BIO-RAD, USA) was stabilized with PBST (PBS+0.01% tween 20, pH 7.4). Stabilized GLC chip was activated with 150 uL of Sulfo-NHS (0.001 M) and EDC (0.04M) (1:1) followed by immobilization of 10 ug/mL human GLP-1 receptor (Abcam, UK) diluted in acetate buffer (pH 5.0). After immobilization level was recorded and deactivation by 1 M Ethanolamine-HCl (pH 8.5), different concentrations of Dulaglutide and GLP-1-gFc (0, 1.25, 2.5, 5, 10 uM) were injected to each channel of chip. Chip was regenerated by 25 mM NaOH and checked ‘Zero base’ before repeated analysis of same molecule or other TA. All binding sesorgrams were collected, processed, and analyzed using the integrated Proteon Manager software (Bio-RAD, USA). Binding curves were fitted using the Laugmuir model.

[2] = molecular target: T1, human GLP-1 receptor (Abcam); test: SPR (Proteon XPR36), human GLP-1 receptor immobilised
Procedure: as §1

[3] = molecular target: GLP-1 receptor expressed on the transgenic cell line GLP1R_cAMP/luc; test: cell-based or functional assay

B1: GLP-1(A2G)-hyFc9 (Fc fusion)
chain: HGEGTFTSDVSSYLEGQAAKEFIAWLVKGRGAKATTAPATTRNTGRGGEEKKKEKEKEEQEERETKTPECPSHTQPLGVFLFPPKPKDTLMISRTPEVTCVVVDVSQEDPEVQFNWYVDGVEVHNAKTKPREEQFNSTYRVVSVLTVLHQDWLNGKEYKCKVSNKGLPSSIEKTISKAKGQPREPQVYTLPPSQEEMTKNQVSLTCLVKGFYPSDIAVEWESNGQPENNYKTTPPVLDSDGSFFLYSRLTVDKSRWQEGNVFSCSVMHEALHNHYTQKSLSLSLGK
modifications: O-glycosylation at the IgD hinge region (positions not stated)
notes: also called GLP-1-gFc; GLP-1-hyFc9
B1 was tested, and the Kd [1] was 16 µM, the “fold koff against Dulaglutide” value [2] was roughly 10 fold and the “fold kon against Dulaglutide” value [2] was 1.7 fold. For the same binder, the “EC50, cAMP-dependent luciferase reporter in GLP-1R over-expressing cells” value [3] was 0.0233 nM and the “fold difference of EC50 against Dulaglutide, cAMP-dependent luciferase reporter” value [3] was 3.5 fold.

— patent publication US20200282021A1 (GENEXINE, published 2020)
